Measured values taken from the nanobody polyreactivity screen of Harvey et al. (2022).

Experiment: yeast display, Sf9 membrane polyspecificity reagent, FACS + sequencing; frameworks hold sequencing errors
Outline: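 After 36–48 hours of galactose induction, yeast (Saccharomyces cerevisiae BJ5465) displaying a synthetic nanobody library were stained at 4 °C for 1 hour with 10% biotinylated, detergent-solubilized Sf9 membrane reagent. Streptavidin microbeads enriched the stained cells before FACS sorting into low and high (top ~1%) gates on anti-HA and streptavidin fluorescence. Each clone's polyreactivity label reflects its gate of origin.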

Sequence	polyreactivity (PSR sort gate)
QVQLVESGGGLVQAGGSLRLSCAASGRTFVFNAMGWYSPAPGKERDLVAGISGSGGSTYYADSVKGRFTISRDNAKNTVYLQMNSLKPEDTAVYYCATKFPRKELDQDSVSGLGYWGLGTQVTVSS	low polyreactivity
QVQLVESGGGLVQAGGSLRLSCAASGFTFWYYAMGWYRQAPGKERELVARITSRGADTYADSVKGRFTISRDNAKNTVYLQMNSLKPEDTAVYDCNADIISVSVYYFIVEYDYWGQGTQVTVSS	low polyreactivity
QVQLVESGGGLVQAGGSLRLSCAASASTFGAYAMGWYRQAPGKERELVAAITESGDNTYYADSVKGRFTISRDNAKNTVYLQMNSLKPEDTAVFYCAADDGYSTYEYWGQGTQVTVSS	low polyreactivity
QVQLVESGGGLVQAGGSLRLSCAASGSIFDNYAMGWYRPAPGKERELVAVISSGGVSTSYADSVKGRFTISRDNAKNTVYLQMNSLKTEDTAVYYCAADGYYIGPYDYWGQGTQVNVSS	low polyreactivity
QVQLVESGGGLVQSGGSLRLSCAASGGTFHKYDMGWYRQAPGKERELVAAITRSGGSTYYADSVKGRFTISRDNAKNTVYLQMNSLKPEDTAVYFCNAGKRGSTYYYWGQGTQVTVSS	high polyreactivity
QVQLVETGGGLVQAGGSLGLSCDASGSTFLYVRGWYRQAPGKERELVAAISESGGSPYYADSVKGRFTISRDNAKNTVYLQMNSLKPEDTAVYYCAADLPSGLQYRYYRVDYWGQGTQVTVSS	low polyreactivity
QVHLVESGGGLVQAGGSLRLSCAASGSIFFGYAKGWYRQAPGKERELVAGMDTGGSTDYADSVTGRFTISRDNAKNTVYLQMNSLKPEDTAVYYWATYSYGAVTVDYWGQGTQVTVSS	low polyreactivity
QVQIVESGGGLVQAGVSLRLSCAASGLTIGVYAMGWYRQAPGKERELVAAISWSGGTTYYADSVKGRFTISRDNAKINFYLQMNSLKPEDTAVYYCAADYYTDVDYWGQGNQVTVSS	low polyreactivity
QVQLVESGGGLVQAGGSLRLSCAASGRTFFPYAMGWYRQEPGKERELVADIRRGGSTYYADSVKGRFTISRDNAKNNVYLQMYSLKPEDTAVYYCNVDFWWNRLYELDYWGQGTQVTVSS	high polyreactivity
QVQLVESGGGLVQAGGSLRLSCAASGRTFRLYAMGWYRQAPGKERELVAAIDGNGGSTYYADSVKGRFTISRDNAKNTVYLQMNSLKPEDTAVYYCAVSVSVYLDYRRDHQRGYDYWGQGTQVTVSS	low polyreactivity
QVQLVESGGGLVQAGGSLRLSCAASGSTFGYYAMGWYRQAPGKESELVATINWSGGSTYYADSVKGRFTISRDNAKNTVYLQMNSLKPEDTAVYYCAADPYLQYYWAYDYWGQGTQVTVSS	low polyreactivity
QVQLVESGGGLVQAGGSLRLSCAASGITFSANAMGWYRQAPGKERELVATITWSGGSTYYADSVKGRFTISRDNAKNTVYLQMNSLKPEDTAVYYCNARSYDEYPYYSYNYWGQGTQVTVSS	low polyreactivity
QVQLVESGGGLVQAGGSLRISCAASGFIFSRNAMGWYRQAPGKERELVAAISAGGGSTYYADSVKGRFTISRDNAKNTVYLQMNSLKPEDSAVYSCAAYFRSQFGYWGQGTQVTVSS	high polyreactivity
QVQLVESGGGLVQAGGSLRLSCAASGRIFGTNAMGWYRQAPGKERELVAAITWRGGSTYYADSVKGRFTISRDNAKNTVYLQMNSLKPVDTAVYYCAKDLVYWYQTIRAGISNYWGQGTQVTVSS	low polyreactivity
QVQLVESGGGLVQAGGSLRLSCAASGSIFAWYGMGWYRQAPGKERELVAAITSTGSTYYADSVKGRFTISRDNAKNTVYLQMNSLKPEDTAVYDCNAYSVYLWRPGDYWGLGTQVTVSS	low polyreactivity
QVQLVESGGGLVQAGGSLRLSCAASGRTDRTNAMGWYRQAPGKERELVAAISTGGGITNYADSVKGRITISRDNAKNTVYLQMNSLKPEDTAVYYCNADIYTWFQIGGYQYDYWGQGTHVTVSS	low polyreactivity
QVQLVESGGGLVQAGGSLRLSCAASGSTFGYYTMGWYRQEPVKETELVAAISYSGGRTFYADSVKGRFTISRDNAKNSVYLQMKSLKTEDTEVYYCNKRYIPSYLSHLDYWGQGTQVTVSS	high polyreactivity
